The record followed here is US20200157198A1 (POPULAS BIOPHARMACEUTICAL WUHAN, published 2020).

The target in test [1] is polypeptide C8079BB030-1 (…). Briefly: indirect ELISA on coated peptide (1 ug/ml); unimmunized serum 1:1,000; column No. 1958. (An ELISA detects its analyte on a solid surface through an enzyme-linked reagent.)
In test [2] the target is polypeptide C8079BB030-1 (…). The test can be described thus: indirect ELISA on coated peptide (1 ug/ml); unimmunized serum 1:1,000; column No. 1955.
The target of test [3] is polypeptide C8079BB030-1 (…). The test can be described thus: indirect ELISA on coated peptide (1 ug/ml); unimmunized serum 1:1,000; column No. 1954.
For test [4], the target named is polypeptide C8079BB030-1 (…). The test can be described thus: indirect ELISA on coated peptide (1 ug/ml); unimmunized serum 1:1,000; column No. 1957.
Test [5] deals with polypeptide C8079BB030-1 (…). Briefly: indirect ELISA on coated peptide (1 ug/ml); unimmunized serum 1:1,000; column No. 1956.
In test [6] the target is T1, HA-tagged human Nav1.9 expressed in ND7/23 cells (human, UniProt Q9UI33 1-1791, limits assumed).
T1 construct: Assayed as SDS-PAGE-separated lysate of transfected ND7/23 cells (Western blot); also called HA-hNav1.9; human Nav1.9-HA; not shown: HA tag
T1 sequence (Q9UI33 whole entry): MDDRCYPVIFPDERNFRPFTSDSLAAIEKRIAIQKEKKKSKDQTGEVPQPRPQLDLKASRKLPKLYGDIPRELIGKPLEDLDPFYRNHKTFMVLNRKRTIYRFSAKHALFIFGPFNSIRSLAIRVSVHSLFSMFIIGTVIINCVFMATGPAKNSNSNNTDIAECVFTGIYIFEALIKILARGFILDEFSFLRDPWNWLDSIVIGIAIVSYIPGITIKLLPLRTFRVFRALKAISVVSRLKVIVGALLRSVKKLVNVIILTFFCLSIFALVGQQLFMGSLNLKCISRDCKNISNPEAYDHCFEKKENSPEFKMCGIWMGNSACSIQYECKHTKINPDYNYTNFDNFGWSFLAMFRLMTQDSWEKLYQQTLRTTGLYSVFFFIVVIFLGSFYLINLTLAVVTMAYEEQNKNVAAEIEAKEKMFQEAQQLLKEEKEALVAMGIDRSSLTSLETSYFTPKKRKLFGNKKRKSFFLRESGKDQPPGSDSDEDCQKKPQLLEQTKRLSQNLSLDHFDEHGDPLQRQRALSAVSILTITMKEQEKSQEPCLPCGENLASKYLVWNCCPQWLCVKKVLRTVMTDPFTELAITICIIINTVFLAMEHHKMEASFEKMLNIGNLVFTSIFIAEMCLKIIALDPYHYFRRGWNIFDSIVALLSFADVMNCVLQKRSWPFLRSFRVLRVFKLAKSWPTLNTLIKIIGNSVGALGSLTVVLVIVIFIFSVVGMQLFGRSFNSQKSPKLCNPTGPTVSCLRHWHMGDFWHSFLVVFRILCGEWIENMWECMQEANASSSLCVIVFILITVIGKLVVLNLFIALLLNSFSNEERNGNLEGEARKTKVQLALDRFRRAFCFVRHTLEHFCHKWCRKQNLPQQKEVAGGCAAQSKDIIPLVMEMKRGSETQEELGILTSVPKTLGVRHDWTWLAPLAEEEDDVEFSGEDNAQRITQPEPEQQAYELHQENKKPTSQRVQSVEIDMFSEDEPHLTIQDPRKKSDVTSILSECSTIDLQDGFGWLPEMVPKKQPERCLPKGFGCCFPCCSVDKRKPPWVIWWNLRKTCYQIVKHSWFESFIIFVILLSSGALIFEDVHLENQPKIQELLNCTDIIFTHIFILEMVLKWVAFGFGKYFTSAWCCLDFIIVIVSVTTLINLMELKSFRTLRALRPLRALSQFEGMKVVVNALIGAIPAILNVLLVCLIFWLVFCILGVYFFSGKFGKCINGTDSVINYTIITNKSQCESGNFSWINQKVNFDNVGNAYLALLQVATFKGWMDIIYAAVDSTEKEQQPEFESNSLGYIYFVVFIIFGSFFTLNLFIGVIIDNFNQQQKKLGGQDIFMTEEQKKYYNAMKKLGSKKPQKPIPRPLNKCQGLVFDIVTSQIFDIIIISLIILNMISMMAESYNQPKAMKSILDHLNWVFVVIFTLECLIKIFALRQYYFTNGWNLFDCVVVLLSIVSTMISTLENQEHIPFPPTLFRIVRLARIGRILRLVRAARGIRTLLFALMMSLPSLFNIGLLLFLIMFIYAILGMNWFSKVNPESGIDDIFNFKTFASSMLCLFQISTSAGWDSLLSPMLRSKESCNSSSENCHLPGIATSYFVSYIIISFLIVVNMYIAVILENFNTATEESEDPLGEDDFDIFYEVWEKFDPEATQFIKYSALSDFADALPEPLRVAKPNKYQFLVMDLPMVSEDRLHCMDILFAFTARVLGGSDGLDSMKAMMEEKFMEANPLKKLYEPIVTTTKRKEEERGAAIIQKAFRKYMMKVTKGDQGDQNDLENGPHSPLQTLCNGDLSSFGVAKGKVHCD
The test can be described thus: Western blot of lysate of ND7/23 cells transfected with HA-hNav1.9; antibody 1:300. As for the experimental part:
4. The cell lysate was centrifuged at 12000 rpm for 10 minutes at 4° C. to collect the cell lysis supernatant.
6. After […], the cells were incubated with HA tag (1:2000) antibody and 5A2F9-4 (1:300) antibody for 1 hour at room temperature.
8. A digoxigenin-labeled anti-mouse antibody (1:20000) was added and incubated for 1 hour at room temperature;
On the technique in general: A western blot detects proteins with antibodies after separation by electrophoresis.

With negative control of unimmunized serum, the OD value (450 nm) amounted to 0.104 OD450 in test [1]; 0.066 OD450 in test [2]; 0.072 OD450 in test [3]; 0.088 OD450 in test [4]; 0.086 OD450 in test [5].

B1: 5A2F9-4 antibody (antibody, V domains shown)
VH: QVQLQQPGAELVKPGASVKLSCKASGYTFTSYWMHWVKQRPGQGLEWIGEINPRNGRINQNEKFKSKATLTVAKSSSTAYMQLSSLTSEDSAVYYCSRGGGSSAEGGYWGQGTTLTVSS
VL: DVLMTQTPLSLPVSLGDQASISCRSSQSIVHSNGNTYLDWYLQKPGQSPKLLIYKVFNRLSGVPDRFSGSGSGTDFTLKISRVEAEDLGVYYCFQGSHVPLTFGAGTKLELQ
notes: Mouse hybridoma monoclonal antibody
Take B1: the binding result in test [6] is “binds”.
